Experimental data taken from patent publication US20240166765A1 (ICONIC THERAPEUTICS, published 2024).
Where a chain is given by its changes, count along the chain named. Where two headings read alike, the source gives them in different places.

Assays:
[1] = target: T1, human Tissue Factor on MDA-MB-231 cells (human, UniProt P13726 33-295); experiment: cell-based or functional assay
[2] = target: T1, human Tissue Factor on MDA-MB-231 cells; experiment: cell-based or functional assay; remark: listed apart in the source
[3] = target: T1, human Tissue Factor on MDA-MB-231 cells; experiment: flow cytometry, MDA-MB-231 cells; binding of 20 nM FVII-Fc-Alexa488 (competitor) left at 83 nM Ab
pig TF-His = target: T2, pig TF-His (pig (Sus scrofa)); experiment: SPR (Biacore), antibody captured by anti-human IgG on CM5 chip, pig TF-His in solution, 1:1 model
T2 construct: also called pig TF ECD-His; pTF
T2 chain: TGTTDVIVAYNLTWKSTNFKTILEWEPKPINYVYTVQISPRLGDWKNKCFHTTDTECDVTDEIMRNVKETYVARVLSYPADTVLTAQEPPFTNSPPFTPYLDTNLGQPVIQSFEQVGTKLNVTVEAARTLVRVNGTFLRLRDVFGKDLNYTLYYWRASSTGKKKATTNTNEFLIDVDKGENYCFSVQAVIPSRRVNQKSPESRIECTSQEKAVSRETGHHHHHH

rabbit TF-His = target: T3, rabbit TF-His (rabbit (Oryctolagus cuniculus), UniProt P24055 33-250); experiment: SPR (Biacore), antibody captured by anti-human IgG on CM5 chip, rabbit TF-His in solution, 1:1 model
T3 construct: also called rabbit TF ECD-His

relipidated TF [4] = target: T4, relipidated TF (UniProt P13726 33-295, limits assumed); experiment: cell-based or functional assay
human TF ECD-His6 [5] = target: T5, human TF ECD-His6 (human, UniProt P13726 33-251); experiment: BLI (ForteBio Octet)
T5 construct: made in Expi293 cells; the entry holds the ECD with the C-terminal TG-His6; also called TF-His; hTF

cynomolgus TF ECD-His6 [6] = target: T6, cynomolgus TF ECD-His6 (cynomolgus monkey (Macaca fascicularis)); experiment: BLI (ForteBio Octet)
T6 construct: made in Expi293 cells; also called TF-His; cTF
T6 chain: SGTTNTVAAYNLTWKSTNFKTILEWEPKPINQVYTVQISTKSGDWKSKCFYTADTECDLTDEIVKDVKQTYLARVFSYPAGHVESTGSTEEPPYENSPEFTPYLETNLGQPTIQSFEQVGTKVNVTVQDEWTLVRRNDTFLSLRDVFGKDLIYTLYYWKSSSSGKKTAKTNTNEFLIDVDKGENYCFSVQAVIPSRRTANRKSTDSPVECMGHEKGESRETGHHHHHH

relipidated TF [7] = target: T4, relipidated TF; experiment: cell-based or functional assay; remark: listed apart in the source
human TF ECD-His6 [8] = target: T5, human TF ECD-His6; experiment: SPR (Biacore), antibody on chip, TF-His titrated
cynomolgus TF ECD-His6 [9] = target: T6, cynomolgus TF ECD-His6; experiment: SPR (Biacore), antibody on chip, TF-His titrated
[10] = target: rTF (rat TF) on HEK293 cells (rat, UniProt P42533 29-252); experiment: live cell staining of transfected HEK293, flow cytometry
relipidated TF [11] = target: T4, relipidated TF; experiment: cell-based or functional assay; remark: listed apart in the source
relipidated TF [12] = target: T4, relipidated TF; experiment: cell-based or functional assay; remark: listed apart in the source

T3 sequence (P24055 other isoform, or with tags, fused parts or gaps): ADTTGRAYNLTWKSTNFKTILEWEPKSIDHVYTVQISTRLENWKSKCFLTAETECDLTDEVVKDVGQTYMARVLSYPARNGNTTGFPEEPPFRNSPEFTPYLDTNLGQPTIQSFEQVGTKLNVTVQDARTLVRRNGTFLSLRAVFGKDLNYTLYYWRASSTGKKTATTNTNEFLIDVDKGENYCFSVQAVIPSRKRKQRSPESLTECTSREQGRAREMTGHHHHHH
rTF (rat TF) on HEK293 cells, sequence (P42533 29-252): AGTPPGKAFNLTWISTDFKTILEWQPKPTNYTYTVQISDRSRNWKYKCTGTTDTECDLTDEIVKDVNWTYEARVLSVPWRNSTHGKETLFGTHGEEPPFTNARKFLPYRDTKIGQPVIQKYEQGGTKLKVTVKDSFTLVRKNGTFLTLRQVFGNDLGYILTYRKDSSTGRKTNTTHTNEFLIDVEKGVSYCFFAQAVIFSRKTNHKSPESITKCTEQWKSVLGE

B1: 25G (antibody, human IgG1, kappa, V domains shown)
VH: QVQLVQSGAEVKKPGASVKVSCKASGYTFRSYGISWVRQAPGQGLEWMGWVAPYNGNTNYAQKLQGRVTMTTDTSTSTAYMELRSLRSDDTAVYYCARDAGTYSPYGYGMDVWGQGTTVTVSS
VL: DIQMTQSPSTLSASVGDRVTITCRASQSISSWLAWYQQKPGKAPKLLIYKASSLESGVPSRFSGSGSGTEFTLTISSLQPDDFATYYCQQFQSLPPFTFGGGTKVEIKR
notes: Human anti-TF IgG1
[1]
  % FXa, 12.5 nM Ab: 99%
  % FXa, 25 nM Ab: 109%
  % FXa, 100 nM Ab: 116%
[2]
  % IL8, 2.56 nM Ab: 60%
  % IL8, 6.4 nM Ab: 22%
  % IL8, 16 nM Ab: 16%
  % IL8, 40 nM Ab: 10%
  % IL8, 100 nM Ab: 9%
[3]
  % FVIIa: 93%

B2: 25A (antibody, human IgG1, V domains shown)
VH: B1 VH with R30D, S31V, V51I, Y106F
VL: DIQMTQSPSTLSASVGDRVTITCRASQSISSWLAWYQQKPGKAPKLLIYKASSLESGVPSRFSGSGSGTEFTLTISSLQPDDFATYYCQQFQSLPPFTFGGGTKVEIK
notes: Human IgG1; also called antibody 25A
Pig TF-His
  Kd: 18.7 nM
Rabbit TF-His
  Kd: 50.5 nM

B3: 25G (antibody, human IgG1, kappa, V domains shown)
VH: B1 VH
VL: B1 VL
notes: Human IgG1; also called antibody 25G
Pig TF-His
  Kd: 26 nM
Rabbit TF-His
  Kd: 75.5 nM

B4: 25G9 (antibody, human IgG1, kappa, V domains shown)
VH: B1 VH with N55S
VL: B1 VL with R24Q, S30D, K50S, S53Y, Q90R
notes: Human IgG1; also called antibody 25G9
Pig TF-His
  Kd: 3.3 nM
Rabbit TF-His
  Kd: 4.2 nM

B5: 25A5-T (antibody, human IgG1, kappa, V domains shown)
VH: B1 VH with R30D, S31A, V51I, N55S, Y106F
VL: B1 VL with Q27E, S31N, S52Y, S56Y, S93K
notes: Human IgG1
Pig TF-His
  Kd: 4.5 nM
Rabbit TF-His
  Kd: 5.4 nM

B6: 25G1 (antibody, human IgG1, kappa, V domains shown)
VH: B1 VH with N55S
VL: B1 VL with Q27H, S30D, S53Y, Q90L
notes: Human IgG1; also called antibody 25G1
Pig TF-His
  Kd: 2.6 nM
Rabbit TF-His
  Kd: 3.6 nM

B7: 25A5 (antibody, human IgG1, kappa, V domains shown)
VH: B1 VH with R30D, S31V, V51I, N55S, Y106F
VL: B1 VL with Q27E, S31N, S52Y, S56Y, S93K
notes: Human IgG1; also called antibody 25A5
Pig TF-His
  Kd: 5.2 nM
Rabbit TF-His
  Kd: 5.4 nM

B8: 1F (antibody, human IgG1, V domains shown)
VH: EVQLLESGGGLVQPGGSLRLSCAASGFTFSDYAMGWVRQAPGKGLEWVSTISGSGGLTYYADSVKGRFTISRDNSKNTLYLQMNSLRAEDTAVYYCAKAPYGYYMDVWGKGTTVTVSS
VL: not shown
notes: human IgG1
Relipidated TF [4]
  decrease of peak IIa concentration, TGA with 10 min pre-incubation, 100 nM Ab: 93%
  decrease of peak IIa concentration, TGA without pre-incubation, 100 nM Ab: 92%
Human TF ECD-His6 [5]
  Kd: 1.28 nM
Cynomolgus TF ECD-His6 [6]
  Kd: 1.43 nM
Relipidated TF [7]
  TGA without pre-incubation, 10 nM Ab: % ETP: 58%
  TGA without pre-incubation, 10 nM Ab: % Peak IIa: 21%
  TGA without pre-incubation, 10 nM Ab: ETP: 1400 nM·min
  TGA without pre-incubation, 10 nM Ab: Lag Time: 12.1 min
  TGA without pre-incubation, 10 nM Ab: Peak IIa: 83 nM
  TGA without pre-incubation, 10 nM Ab: ttPeak: 19.8 min
  TGA without pre-incubation, 50 nM Ab: % Peak IIa: 8%
  TGA without pre-incubation, 50 nM Ab: Lag Time: 27.2 min
  TGA without pre-incubation, 50 nM Ab: Peak IIa: 32 nM
  TGA without pre-incubation, 50 nM Ab: ttPeak: 36.8 min
  TGA without pre-incubation, 100 nM Ab: % Peak IIa: 7%
  TGA without pre-incubation, 100 nM Ab: Lag Time: 25.9 min
  TGA without pre-incubation, 100 nM Ab: Peak IIa: 29 nM
  TGA without pre-incubation, 100 nM Ab: ttPeak: 37.9 min
Human TF ECD-His6 [8]
  Kd: 0.31 nM
Cynomolgus TF ECD-His6 [9]
  Kd: 0.26 nM
[10]
  binding result: no binding (tested: 15 µg/ml (100 nM))

B9: 39A (antibody, human IgG1, V domains shown)
VH: QVQLVQSGAEVKKPGSSVKVSCKASGGTFSSNAIGWVRQAPGQGLEWMGSIIPIIGFANYAQKFQGRVTITADESTSTAYMELSSLRSEDTAVYYCARDSGYYYGASSFGMDVWGQGTTVTVSS
VL: EIVMTQSPATLSVSPGERATLSCRASQSVSSNLAWYQQKPGQAPRLLIYGASTRATGIPARFSGSGSGTEFTLTISSLQSEDFAVYYCEQYNNLPLTFGGGTKVEIK
notes: human IgG1
Relipidated TF [4]
  decrease of peak IIa concentration, TGA with 10 min pre-incubation, 100 nM Ab: 93%
  decrease of peak IIa concentration, TGA without pre-incubation, 100 nM Ab: 91%
Human TF ECD-His6 [5]
  Kd: 0.83 nM
Cynomolgus TF ECD-His6 [6]
  Kd: 0.57 nM
Relipidated TF [7]
  TGA without pre-incubation, 10 nM Ab: % ETP: 55%
  TGA without pre-incubation, 10 nM Ab: % Peak IIa: 20%
  TGA without pre-incubation, 10 nM Ab: ETP: 1330 nM·min
  TGA without pre-incubation, 10 nM Ab: Lag Time: 12.1 min
  TGA without pre-incubation, 10 nM Ab: Peak IIa: 82 nM
  TGA without pre-incubation, 10 nM Ab: ttPeak: 19.6 min
  TGA without pre-incubation, 50 nM Ab: % Peak IIa: 7%
  TGA without pre-incubation, 50 nM Ab: Lag Time: 30.5 min
  TGA without pre-incubation, 50 nM Ab: Peak IIa: 30 nM
  TGA without pre-incubation, 50 nM Ab: ttPeak: 40 min
  TGA without pre-incubation, 100 nM Ab: % Peak IIa: 6%
  TGA without pre-incubation, 100 nM Ab: Lag Time: 28.9 min
  TGA without pre-incubation, 100 nM Ab: Peak IIa: 26 nM
  TGA without pre-incubation, 100 nM Ab: ttPeak: 40.1 min
Relipidated TF [11]
  TGA without pre-incubation, 10 nM Ab: % ETP: 58%
  TGA without pre-incubation, 10 nM Ab: % Peak IIa: 24%
  TGA without pre-incubation, 10 nM Ab: ETP: 1330 nM·min
  TGA without pre-incubation, 10 nM Ab: Lag Time: 12.4 min
  TGA without pre-incubation, 10 nM Ab: Peak IIa: 84 nM
  TGA without pre-incubation, 10 nM Ab: ttPeak: 20.7 min
  TGA without pre-incubation, 50 nM Ab: % Peak IIa: 8%
  TGA without pre-incubation, 50 nM Ab: Lag Time: 33.1 min
  TGA without pre-incubation, 50 nM Ab: Peak IIa: 29 nM
  TGA without pre-incubation, 50 nM Ab: ttPeak: 43.2 min
  TGA without pre-incubation, 100 nM Ab: % Peak IIa: 6%
  TGA without pre-incubation, 100 nM Ab: Lag Time: 38.1 min
  TGA without pre-incubation, 100 nM Ab: Peak IIa: 22 nM
  TGA without pre-incubation, 100 nM Ab: ttPeak: 48.3 min
Relipidated TF [12]
  TGA with 10 min pre-incubation, 10 nM Ab: % Peak IIa: 11%
  TGA with 10 min pre-incubation, 10 nM Ab: Lag Time: 20.9 min
  TGA with 10 min pre-incubation, 10 nM Ab: Peak IIa: 30 nM
  TGA with 10 min pre-incubation, 10 nM Ab: ttPeak: 30.8 min
  TGA with 10 min pre-incubation, 50 nM Ab: % Peak IIa: 8%
  TGA with 10 min pre-incubation, 50 nM Ab: Lag Time: 29 min
  TGA with 10 min pre-incubation, 50 nM Ab: Peak IIa: 21 nM
  TGA with 10 min pre-incubation, 50 nM Ab: ttPeak: 39.7 min
  TGA with 10 min pre-incubation, 100 nM Ab: % Peak IIa: 6%
  TGA with 10 min pre-incubation, 100 nM Ab: Lag Time: 32.1 min
  TGA with 10 min pre-incubation, 100 nM Ab: Peak IIa: 17 nM
  TGA with 10 min pre-incubation, 100 nM Ab: ttPeak: 43.2 min
Human TF ECD-His6 [8]
  Kd: 0.09 nM
Cynomolgus TF ECD-His6 [9]
  Kd: 0.08 nM
[10]
  binding result: no binding (tested: 15 µg/ml (100 nM))

B10: 43D7 (antibody, human IgG1, kappa, V domains shown)
VH: QVQLQQWGAGLLKPSETLSLTCAVYGGSLSGYYWSWIRQPPGKGLEWIGEIGASGSTRYNPSLKSRVTISVDTSKNQFSLKLSSVTAADTAVYYCARDTPYYYEGGYYYYMDVWGKGTTVTVSS
VL: EIVLTQSPGTLSLSPGERATLSCRASDSVDSSYLAWYQQKPGQAPRLLIYGAFSRANGIPDRFSGSGSGTDFTLTISRLEPEDFAVYYCQQAGVVPYTFGGGTKVEIKR
notes: Human IgG1; also called antibody 43D7
Pig TF-His
  Kd: 8.8 nM
Rabbit TF-His
  Kd: 6.8 nM

B11: 43D8 (antibody, human IgG1, kappa, V domains shown)
VH: B10 VH
VL: B10 VL with D27Q, D30S, Y33F, F53Y, N57T
notes: Human IgG1; also called antibody 43D8; 43D8 mAb
Pig TF-His
  Kd: 19.2 nM
Rabbit TF-His
  Kd: 7.7 nM

B12: TF-011 (antibody, V domains shown)
VH: EVQLLESGGGLVQPGGSLRLSCAASGFTFSNYAMSWVRQAPGKGLEWVSSISGSGDYTYYTDSVKGRFTISRDNSKNTLYLQMNSLRAEDTAVYYCARSPWGYYLDSWGQGTLVTVSS
VL: DIQMTQSPPSLSASAGDRVTITCRASQGISSRLAWYQQKPEKAPKSLIYAASSLQSGVPSRFSGSGSGTDFTLTISSLQPEDFATYYCQQYNSYPYTFGQGTKLEIK
notes: previously described anti-TF antibody
Relipidated TF [4]
  decrease of peak IIa concentration, TGA with 10 min pre-incubation, 100 nM Ab: 91%
  decrease of peak IIa concentration, TGA without pre-incubation, 100 nM Ab: 91%
[10]
  binding result: no binding (tested: 15 µg/ml (100 nM))
